Results: IntAct's records for PubMed 22879593

The substances below were run against USH1C, Q9Y6N9-1.
Chain of USH1C, Q9Y6N9-1 (Q9Y6N9 whole entry): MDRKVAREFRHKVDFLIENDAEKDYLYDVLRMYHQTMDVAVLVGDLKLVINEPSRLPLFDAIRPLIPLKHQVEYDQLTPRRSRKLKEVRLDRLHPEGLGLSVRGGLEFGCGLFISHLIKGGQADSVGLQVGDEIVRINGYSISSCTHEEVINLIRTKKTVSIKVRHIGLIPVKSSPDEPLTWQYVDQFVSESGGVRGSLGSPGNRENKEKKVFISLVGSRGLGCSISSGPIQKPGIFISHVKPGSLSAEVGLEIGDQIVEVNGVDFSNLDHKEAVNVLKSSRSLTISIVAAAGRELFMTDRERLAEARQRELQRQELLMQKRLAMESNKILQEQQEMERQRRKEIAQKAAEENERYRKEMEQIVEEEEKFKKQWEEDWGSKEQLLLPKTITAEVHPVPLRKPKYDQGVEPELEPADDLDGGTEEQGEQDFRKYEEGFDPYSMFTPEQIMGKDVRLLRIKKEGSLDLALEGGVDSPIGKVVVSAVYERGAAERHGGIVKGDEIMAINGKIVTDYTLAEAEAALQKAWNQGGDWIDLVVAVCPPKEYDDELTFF

| Substance | effect of a mutation on the interaction |
| --- | --- |
| Cadherin-23 (Homo sapiens), Q9H251 L3188Q;L3215Q | disrupting interaction strength |

Molecular target: USH1C, Q9Y6N9-1
Remark: another data set of the same source

| Substance | effect of a mutation on the interaction |
| --- | --- |
| Cadherin-23 (Homo sapiens), Q9H251 L3225Q | with no effect |
| Cadherin-23 (Homo sapiens), Q9H251 Y3222E | decreasing interaction strength |
| Cadherin-23 (Homo sapiens), Q9H251 L3228Q | with no effect |
| Cadherin-23 (Homo sapiens), Q9H251 L3223Q | with no effect |
| Cadherin-23 (Homo sapiens), Q9H251 L3215Q | decreasing interaction strength |
| Cadherin-23 (Homo sapiens), Q9H251 L3219Q | decreasing interaction strength |
